The results in this text go back to doi:10.1101/2023.06.07.544024 (bioRxiv, 2023).

The target in this test is FtsH (E. coli, UniProt P0AAI3 1-644). The test is described as follows: cross-linking.
Sequence of FtsH (P0AAI3 whole entry): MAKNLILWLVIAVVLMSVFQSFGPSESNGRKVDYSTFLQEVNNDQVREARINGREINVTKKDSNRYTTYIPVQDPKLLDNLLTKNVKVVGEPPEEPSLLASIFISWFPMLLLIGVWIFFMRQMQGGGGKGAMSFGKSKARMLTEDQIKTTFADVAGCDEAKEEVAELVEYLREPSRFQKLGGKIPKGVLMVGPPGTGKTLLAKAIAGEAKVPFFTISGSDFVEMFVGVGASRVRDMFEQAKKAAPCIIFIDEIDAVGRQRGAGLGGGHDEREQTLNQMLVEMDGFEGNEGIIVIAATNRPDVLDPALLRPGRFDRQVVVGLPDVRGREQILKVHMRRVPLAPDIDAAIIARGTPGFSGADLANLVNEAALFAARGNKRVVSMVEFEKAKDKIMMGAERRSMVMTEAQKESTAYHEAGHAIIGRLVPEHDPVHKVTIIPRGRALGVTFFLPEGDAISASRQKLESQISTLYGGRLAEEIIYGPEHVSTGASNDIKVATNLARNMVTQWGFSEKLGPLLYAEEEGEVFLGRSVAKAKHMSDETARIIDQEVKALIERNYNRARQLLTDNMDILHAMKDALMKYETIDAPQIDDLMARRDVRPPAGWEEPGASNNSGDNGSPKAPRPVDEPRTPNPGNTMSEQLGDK

B1: HflK (natural protein, E. coli)
chain: MAWNQPGNNGQDRDPWGSSKPGGNSEGNGNKGGRDQGPPDLDDIFRKLSKKLGGLGGGKGTGSGGGSSSQGPRPQLGGRVVTIAAAAIVIIWAASGFYTIKEAERGVVTRFGKFSHLVEPGLNWKPTFIDEVKPVNVEAVRELAASGVMLTSDENVVRVEMNVQYRVTNPEKYLYSVTSPDDSLRQATDSALRGVIGKYTMDRILTEGRTVIRSDTQRELEETIRPYDMGITLLDVNFQAARPPEEVKAAFDDAIAARENEQQYIREAEAYTNEVQPRANGQAQRILEEARAYKAQTILEAQGEVARFAKLLPEYKAAPEITRERLYIETMEKVLGNTRKVLVNDKGGNLMVLPLDQMLKGGNAPAAKSDNGASNLLRLPPASSSTTSGASNTSSTSQGDIMDQRRANAQRNDYQRQGE
Consider B1, for which the binding result was “binds”.

B2: HflC (natural protein, E. coli)
chain: MRKSVIAIIIIVLVVLYMSVFVVKEGERGITLRFGKVLRDDDNKPLVYEPGLHFKIPFIETVKMLDARIQTMDNQADRFVTKEKKDLIVDSYIKWRISDFSRYYLATGGGDISQAEVLLKRKFSDRLRSEIGRLDVKDIVTDSRGRLTLEVRDALNSGSAGTEDEVTTPAADNAIAEAAERVTAETKGKVPVINPNSMAALGIEVVDVRIKQINLPTEVSEAIYNRMRAEREAVARRHRSQGQEEAEKLRATADYEVTRTLAEAERQGRIMRGEGDAEAAKLFADAFSKDPDFYAFIRSLRAYENSFSGNQDVMVMSPDSDFFRYMKTPTSATR
With B2, the binding result is “binds”.
